Data: patent US20110123676A1, “ENZYMATIC TREATMENT OF A PROTEINACEOUS SUBSTRATE BY ENZYMATIC REMOVAL OF FREE THIOLS” (priority 2008, published 2011)
“Also recorded” adds a separate entry of the source.

B1: TGase: TGase (Activa MP; Ajinomoto), well-known protein cross-linking enzyme used as positive reference (protein, UniProt P81453 77-407, looked up)
Protein-glutamine …: DSDDRVTPPAEPLDRMPDPYRPSYGRAETVVNNYIRKWQQVYSHRDGRKQQMTEEQREWLSYGCVGVTWVNSGQYPTNRLAFASFDEDRFKNELKNGRPRSGETRAEFEGRVAKESFDEEKGFQRAREVASVMNRALENAHDESAYLDNLKKELANGNDALRNEDARSPFYSALRNTPSFKERNGGNHDPSRMKAVIYSKHFWSGQDRSSSADKRKYGDPDAFRPAPGTGLVDMSRDRNIPRSPTSPGEGFVNFDYGWFGAQTEADADKTVWTHGNHYHAPNGSLGAMHVYESKFRNWSEGYSDFDRGAYVITFIPKSWNTAPDKVKQGWP
B2: TrTyr2: Tyrosinase (TrTyr2; VTT, Finland); tyrosinase 2 of Hypocrea jecorina, derived from SEQ ID NO 2 (protein, listed as Hypocrea jecorina)
chain: MLLSASLSALALATVSLAQGTTHIPVTGVPVSPGAAVPLRQNINDLAKSGPQWDLYVQAMYNMSKMDSHDPYSFFQIAGIHGAPYIEYNKAGAKSGDGWLGYCPHGEDLFISWHRPYVLLFEQALVSVAKGIANSYPPSVRAKYQAAAASLRAPYWDWAADSSVPAVTVPQTLKINVPSGSSTKTVDYTNPLKTYYFPRMSLTGSYGEFTGGGNDHTVRCAASKQSYPATANSNLAARPYKSWIYDVLTNSQNFADFASTSGPGINVEQIHNAIHWDGACGSQFLAPDYSGFDPLFFMHHAQVDRMWAFWEAIMPSSPLFTASYKGQSRFNSKSGSTITPDSPLQPFYQANGKFHTSNTVKSIQGMGYSYQGIEYWQKSQAQIKSSVTTIINQLYGPNSGKKRNAPRDFLSDIVTDVENLIKTRYFAKISVNVTEVTVRPAEINVYVGGQKAGSLIVMKLPAEGTVNGGFTIDNPMQSILHGGLRNAVQAFTEDIEVEILSKDGQAIPLETVPSLSIDLEVANVTLPSALDQLPKYGQRSRHRAKAAQRGHRFAVPHIPPL
modifications: signal peptide cleaved

Legend:
myosin [1] = experiment: SDS-PAGE analysis of protein cross-linking, pork extract; format: biochemical; conditions: for protein cross-linking (SDS-PAGE): treatment with the named enzyme alone, vs reference
Procedure: (§1) Protein Extractions: • 1. Brine was made using 2% NaCl and 0.3% STPP • 2. 20 g portions of meat were placed in 250 ml baffled shake flasks • 3. 60 ml of brine were added to each shake flask. • 4. The shake flasks were placed on a rotary shaker (Certomat R, Braun Int.); 120 min at room temperature and 180 rpm • 5. The meat-brine suspension was centrifuged for 60 min at 10000 g and 5° C. • 6. The fat particles were removed by filtering the supernatant through a 0.8 mm grid • 7. The meat-protein extract (supernatant) was stored at −18° C. Dialysis was carried out in Slide-A-Lyzer Dialysis Cassette from Pierce (Order nr: 66810). The dialysis was carried out at 4° C. overnight with one shift of dialysis buffer. Sample Preparation/Enzyme Treatment for SDS-PAGE Analysis Enzyme treatment of the protein extracts prior to SDS-PAGE analysis was done as follows: Tyrosinase was added to a final concentration of 15.5 nkat/ml extract (corresponding to 0.015 mg tyrosinase per ml extract) and incubated for 60 min at 40° C. TGase was added to a final concentration of 2.5 nkat/ml extract (corresponding to 0.015 mg TGase pr. ml extract) and incubated for 60 min at 40° C. sulfhydryl oxidase was added to a final concentration of 0.0033 (low sulfhydryl oxidase) or 0.033 (high sulfhydryl oxidase) nkat/ml. It was always added prior to or simultaneously with other enzyme treatment. If added prior to other enzyme treatment, an incubation time of 60 min at room temperature was applied. SDS-Page Analysis: SDS-PAGE was carried out on Pre-cast Novex Bis-Tris gels (Invitrogen, Carlsbad Calif., USA) according to manufacturers' protocol. For non-reducing SDS-PAGE, DTT was left out of the sample buffer.

tyrosinase = experiment: Tyrosinase spot assay and test of inhibition (skimmed milk); format: biochemical, Hypocrea jecorina; conditions: activity spot test, cysteine and enzyme in contact about 1 min before adding the substrate
Procedure: Tyrosinase Spot Assay and Test of Inhibition Spot assay of tyrosinase activity was determined by adding 11 nkat of tyrosinase to 1 ml of skimmed milk. Red colour formation within 5-10 seconds is an indication of high of tyrosinase activity. To test for tyrosinase inhibition, either the inhibitor is mixed with tyrosinase before addition to the milk or the inhibitor is added to the milk prior to tyrosinase addition. The inhibitors tested were free cysteine at final concentrations of 1 or 0.1 mM or meat extracts diluted 10 times in the final sample.

myosin [2] = experiment: SDS-PAGE analysis of protein cross-linking, turkey extract; format: biochemical; conditions: treatment with the named enzyme alone, vs reference
Procedure: as §1, with “C.” for “C. Dialysis was carried out in Slide-A-Lyzer Dialysis Cassette from Pierce (Order nr: 66810). The dialysis was carried out at 4° C. overnight with one shift of dialysis buffer.”, “SDS-Page Analysis: SDS-PAGE was carried out on Pre-cast Novex Bis-Tris gels (Invitrogen, Carlsbad Calif., USA) according to manufacturers' protocol. For non-reducing SDS-PAGE, DTT was left out of the sample buffer.” left out

myosin [3] = experiment: SDS-PAGE analysis of protein cross-linking, lamb extract; format: biochemical; conditions: treatment with the named enzyme alone, vs reference
Procedure: as §1, with “C.” for “C. Dialysis was carried out in Slide-A-Lyzer Dialysis Cassette from Pierce (Order nr: 66810). The dialysis was carried out at 4° C. overnight with one shift of dialysis buffer.”, “SDS-Page Analysis: SDS-PAGE was carried out on Pre-cast Novex Bis-Tris gels (Invitrogen, Carlsbad Calif., USA) according to manufacturers' protocol. For non-reducing SDS-PAGE, DTT was left out of the sample buffer.” left out

myosin [4] = experiment: SDS-PAGE analysis of protein cross-linking, beef extract; format: biochemical; conditions: for protein cross-linking (SDS-PAGE): treatment with the named enzyme alone, vs reference
Procedure: as §1, with “C.” for “C. Dialysis was carried out in Slide-A-Lyzer Dialysis Cassette from Pierce (Order nr: 66810). The dialysis was carried out at 4° C. overnight with one shift of dialysis buffer.”

myosin [5] = experiment: SDS-PAGE analysis of protein cross-linking, chicken extract; format: biochemical; conditions: treatment with the named enzyme alone, vs reference
Procedure: as §1, with “C.” for “C. Dialysis was carried out in Slide-A-Lyzer Dialysis Cassette from Pierce (Order nr: 66810). The dialysis was carried out at 4° C. overnight with one shift of dialysis buffer.”, “SDS-Page Analysis: SDS-PAGE was carried out on Pre-cast Novex Bis-Tris gels (Invitrogen, Carlsbad Calif., USA) according to manufacturers' protocol. For non-reducing SDS-PAGE, DTT was left out of the sample buffer.” left out

myosin [6] = experiment: SDS-PAGE analysis of protein cross-linking, cod extract; format: biochemical; conditions: treatment with the named enzyme alone, vs reference
Procedure: as §1, with “C.” for “C. Dialysis was carried out in Slide-A-Lyzer Dialysis Cassette from Pierce (Order nr: 66810). The dialysis was carried out at 4° C. overnight with one shift of dialysis buffer.”, “SDS-Page Analysis: SDS-PAGE was carried out on Pre-cast Novex Bis-Tris gels (Invitrogen, Carlsbad Calif., USA) according to manufacturers' protocol. For non-reducing SDS-PAGE, DTT was left out of the sample buffer.” left out

[7] = according to supplier; cited from earlier work
[8] = Tyrosinase activity (nkat); format: biochemical; conditions: enzyme used in the examples
Procedure: One unit of tyrosinase activity—1 nkat is defined as the amount of enzyme that converts 1 nmol of L-DOPA into DOPA-quinone pr. second at pH 7 and 25° C.

[9] = according to supplier; cited from earlier work; remark: listed apart in the source

Row | Molecule | protein cross-linking (SDS-PAGE) (myosin [2]) | protein cross-linking (SDS-PAGE) (myosin [3]) | protein cross-linking (SDS-PAGE) (myosin [4]) | protein cross-linking (SDS-PAGE) (myosin [5]) | protein cross-linking (SDS-PAGE) (myosin [6]) | protein cross-linking (SDS-PAGE) (myosin [1]; pork extract) | other results
1 | [Cu] [copper] |  |  |  |  |  |  | effect of extra copper on tyrosinase activity (myosin [1]; pork extract, results not shown): did not seem to enhance tyrosinase activity
2 | O=P(O)(O)OP(=O)(O)OP(=O)(O)O [STPP, Sodium tripolyphosphate] |  |  |  |  |  |  | effect of removing STPP on tyrosinase cross-linking (SDS-PAGE) (myosin [1]; pork extract dialysed against a solution free of STPP): no further efficiency of tyrosinase cross-linking was observed
3 | N[C@@H](CS)C(=O)O [cysteine] |  |  |  |  |  |  | cysteine concentration giving inhibition of the tyrosinase (tyrosinase): above 10 μM; cysteine concentration giving inhibition of the tyrosinase (tyrosinase; listed as free cysteine): about 10 μM
4 | B1 | efficient | efficient | efficient | efficient | efficient | efficient | TGase activity [7]: 1666 nkat/g
5 | B2 | varying degrees of myosin-band fading | varying degrees of myosin-band fading; also recorded: least extensive fading of the myosin band | indicating protein cross-linking | varying degrees of myosin-band fading; also recorded: least extensive fading of the myosin band | the myosin band disappears entirely; also recorded: fading of the myosin band is most pronounced | no cross-linking seems to take place | tyrosinase cross-linking with or without sulfhydryl oxidase-treatment (SDS-PAGE) (myosin [4]): able to cross-link proteins; specific activity [8]: about 300 nkat/mg; tyrosinase activity [9]: 1067 nkat/ml; tyrosinase activity after dialysis of extract (SDS-PAGE) (myosin [1]; pork extract dialysed against the same solution as used for extraction): rendered the tyrosinase active; tyrosinase activity after dilution of extract (SDS-PAGE) (myosin [1]; ten times dilution of the pork extract prior to tyrosinase treatment, results not shown): rendered the enzyme active
